The results in this text go back to article PMC11563869.

In assay [1] the target is GluA2-γ2_(FRET) (GluA2_(FRET) fused through a GGS linker to full-length mouse TARPγ2) (rat | mouse) (UniProt O88602). Kind of assay: FRET or BRET; single-molecule FRET between Alexa-555 and Alexa-647 on Cys467 of two subunits; receptors from detergent-solubilised HEK293T cells held on the slide by antibody (in situ immunoprecipitation); 1 mM Glu + 100 µM GYKI-52466.
For assay [2] the target is unchanged. Description: FRET or BRET; single-molecule FRET between Alexa-555 and Alexa-647 on Cys467 of two subunits; receptors from detergent-solubilised HEK293T cells held on the slide by antibody (in situ immunoprecipitation); 1 mM Glu + 100 µM CTZ. In general terms: BRET reads energy transfer from a luciferase to a nearby fluorophore.

Regarding “GluA2-γ2_(FRET) (GluA2_(FRET) fused through a GGS linker to full-length mouse TARPγ2) (from UniProt O88602 1-323) (receptor)”, in assay [1], the FRET efficiency (highest-occurring state, with GYKI-52466) turned out to be 0.82. Moreover, the FRET efficiency (highest-occurring state, with CTZ) in assay [2] came to 0.93.
